Experimental data published in US20050084840A1, “Method for screening drug for improving insulin resistance” (priority 2002, published 2005).

Biological target: GAL-PPARγ: chimera protein of the DNA binding region (1-147 amino acids) of yeast Gal4 with the ligand binding region of human PPARγ2 fused to its C terminus, expressed in COS-1 cells (yeast; human) (UniProt P04386)
Assay: cell-based or functional assay

- promotion of the transcription induction ability of PPARγ in the presence of AOP2 (corrected luciferase activity, COS-1), GI-262570 at 1.0 µM and 10 µM: 3.5 fold
- promotion of the transcription induction ability of PPARγ in the presence of AOP2 (corrected luciferase activity, COS-1), GL-100085 at 1.0 to 10 µM: 4 to 6 fold
- promotion of the transcription induction ability of PPARγ in the presence of AOP2 (corrected luciferase activity, COS-1), GW7282 at 1.0 to 10 µM: 4 to 5 fold
B1: full-length AOP2 with vector-derived V5 epitope and HIS6 tag at the C terminus, expressed from pcDNA-AOP2 in COS-1 cells (protein, not shown: small tags and cut ends)
chain: PGGLLLGDVAPNFEANTTVGRIRFHDFLGDSWGILFSHPRDFTPVCTTELGRAAKLAPEFAKRNVKLIALSIDSVEDHLAWSKDINAYNCEEPTEKLPFPIIDDRNRELAILLGMLDPAEKDEKGMPVTARVVFVFGPDKKLKLSILYPATTGRNFDEILRVVISLQLTAEKRVATPVDWKDGDSVMVLPTIPEEEAKKLFPKGVFTKELPSGKKYLRYTPQP
